Residue numbers refer to the chain shown, from its start. Values belong to the molecule of their own block, whether it stands above or below them.
Key:
[1] = molecular target: T1, dimeric human PRLR (hPRLR.mFc; SEQ ID NO:402) (Homo sapiens, UniProt P16471); assay: Surface plasmon resonance (Biacore T200), antibody-capture format; assay type: binding; conditions: analyte hPRLR.mFc
T1 construct: dimeric (hPRLR.mFc)
Procedure: (§1) Antibodies, expressed as human IgG1 Fc (i.e., “H1H” designations), were captured onto an anti-human Fc sensor surface (mAb-capture format), and soluble monomeric (hPRLR.mmh; SEQ ID NO:401, or Macaca fascicularis (mf) PRLR.mmh; SEQ ID NO:403) or dimeric (hPRLR.mFc; SEQ ID NO:402) PRLR protein was injected over the sensor surface. Measurements were conducted on a T200 Biacore instrument. Kinetic association (ka) and dissociation (kd) rate constants were determined by processing and fitting the data to a 1:1 binding model using Scrubber 2.0 curve fitting software.

[2] = test system: Macaca fascicularis PRLR (mfPRLR.mmh; SEQ ID NO:403); assay: as above; assay type: binding; conditions: analyte mfPRLR.mmh
Procedure: as §1

[3] = molecular target: T2, monomeric human PRLR (hPRLR.mmh; SEQ ID NO:401) (Homo sapiens, UniProt P16471); assay: as above; assay type: binding; conditions: analyte hPRLR.mmh
T2 construct: soluble monomeric (hPRLR.mmh); mmh (myc-myc-hexahistidine) (C)
Procedure: as §1

[4] = molecular target: T3, native PRLR expressing T47D cells (Homo sapiens, UniProt P16471); assay: FACS cell surface binding
T3 construct: a native PRLR expressing cell line (T47D); endogenous in cells; host or cells: T47D
T3 sequence (P16471 25-622): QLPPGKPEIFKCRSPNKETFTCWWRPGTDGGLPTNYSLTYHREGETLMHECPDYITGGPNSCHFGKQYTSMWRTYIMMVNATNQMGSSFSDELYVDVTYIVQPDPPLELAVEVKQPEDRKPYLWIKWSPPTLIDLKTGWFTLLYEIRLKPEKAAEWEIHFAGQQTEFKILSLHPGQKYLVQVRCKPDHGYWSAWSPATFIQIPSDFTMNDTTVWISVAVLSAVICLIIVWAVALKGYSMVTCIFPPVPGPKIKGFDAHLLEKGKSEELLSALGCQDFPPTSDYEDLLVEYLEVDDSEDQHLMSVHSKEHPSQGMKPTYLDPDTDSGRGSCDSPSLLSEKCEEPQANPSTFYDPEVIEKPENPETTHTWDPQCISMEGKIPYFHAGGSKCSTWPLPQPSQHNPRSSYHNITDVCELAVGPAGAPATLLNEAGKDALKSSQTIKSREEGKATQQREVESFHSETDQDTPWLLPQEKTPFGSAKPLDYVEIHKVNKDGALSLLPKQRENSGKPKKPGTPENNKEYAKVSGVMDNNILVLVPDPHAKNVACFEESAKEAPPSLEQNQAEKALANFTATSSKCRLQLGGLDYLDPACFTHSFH
Procedure: (§2) Cell surface expression of PRLR on 293/hPRLR cells was assessed via FACS analysis. Briefly, 1×10^5 cells were incubated with 10 μg/ml of Control antibody I, or an isotype control for 30 min on ice in antibody dilution buffer. Following two washes with antibody dilution buffer, cells were incubated with 10 μg/ml of PE conjugated anti-human secondary antibodies for 30 min on ice. Following two additional washes, samples were run on a Hypercyt® cytometer and analyzed in ForeCyt™ (IntelliCyt, Albuquerque, N. Mex.). The mean fluorescence intensities (MFI) were expressed as fold change above isotype control levels (background). FACS binding confirmed that Control I selectively bound to 293/hPRLR expressing cells with MFIs that were 30 fold above background (isotype ctrl) levels and less than 2 fold binding on parental cells.
(§3) Next, the anti-PRLR antibodies were tested via FACS for selective binding to the engineered overexpressing PRLR HEK293 cell lines, as well as to non-expressing HEK293 cells and a native PRLR expressing cell line (T47D).

[5] = test system: HEK293 parental cells; assay: FACS cell surface binding; design: species or system human
Procedure: (§4) The ability of anti-PRLR antibodies to selectively bind PRLR expressing cell lines was next determined. Human, monkey Macaca fascicularis, and mouse PRLR constructs with an HA tag were stably introduced into HEK293 cells via Lipofectamine 2000-mediated transfection methodology. Transfectants (HEK293/hPRLR, HEK293/mfPRLR and HEK293/mPRLR) were selected for at least 2 weeks in complete growth media plus G418.
as §2, §3

[6] = molecular target: T4, monkey PRLR on HEK293/mfPRLR cells (Macaca fascicularis, UniProt A0A2K5WXK1); assay: FACS cell surface binding
T4 construct: HA; expressed in transfected cells; host or cells: HEK293
T4 sequence (A0A2K5WXK1 25-619): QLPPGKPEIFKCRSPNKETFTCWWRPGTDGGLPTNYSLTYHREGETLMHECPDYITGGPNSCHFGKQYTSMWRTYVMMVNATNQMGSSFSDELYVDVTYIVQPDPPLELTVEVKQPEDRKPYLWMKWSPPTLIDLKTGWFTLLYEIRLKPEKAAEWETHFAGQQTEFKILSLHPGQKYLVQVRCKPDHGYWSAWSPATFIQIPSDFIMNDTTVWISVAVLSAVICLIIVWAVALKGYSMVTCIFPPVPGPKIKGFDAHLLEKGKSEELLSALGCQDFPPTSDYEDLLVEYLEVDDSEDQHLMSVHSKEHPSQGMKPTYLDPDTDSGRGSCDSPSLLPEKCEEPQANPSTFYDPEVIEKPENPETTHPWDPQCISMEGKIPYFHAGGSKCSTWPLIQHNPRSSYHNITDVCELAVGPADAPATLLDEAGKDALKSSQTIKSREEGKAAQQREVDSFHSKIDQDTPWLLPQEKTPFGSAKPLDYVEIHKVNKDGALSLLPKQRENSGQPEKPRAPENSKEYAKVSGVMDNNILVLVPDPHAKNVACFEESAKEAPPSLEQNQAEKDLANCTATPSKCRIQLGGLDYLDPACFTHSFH
Procedure: as §4, §2, §3

[7] = molecular target: T5, human PRLR on HEK293/hPRLR cells (Homo sapiens, UniProt P16471); assay: FACS cell surface binding
T5 construct: HA; expressed in transfected cells; host or cells: HEK293
T5 sequence (P16471 25-622): T3 sequence (P16471 25-622)
Procedure: as §4, §2, §3

[8] = molecular target: T6, mouse PRLR on HEK293/mPRLR cells (Mus musculus, UniProt Q08501); assay: FACS cell surface binding
T6 construct: HA; expressed in transfected cells; host or cells: HEK293
T6 sequence (Q08501 20-608): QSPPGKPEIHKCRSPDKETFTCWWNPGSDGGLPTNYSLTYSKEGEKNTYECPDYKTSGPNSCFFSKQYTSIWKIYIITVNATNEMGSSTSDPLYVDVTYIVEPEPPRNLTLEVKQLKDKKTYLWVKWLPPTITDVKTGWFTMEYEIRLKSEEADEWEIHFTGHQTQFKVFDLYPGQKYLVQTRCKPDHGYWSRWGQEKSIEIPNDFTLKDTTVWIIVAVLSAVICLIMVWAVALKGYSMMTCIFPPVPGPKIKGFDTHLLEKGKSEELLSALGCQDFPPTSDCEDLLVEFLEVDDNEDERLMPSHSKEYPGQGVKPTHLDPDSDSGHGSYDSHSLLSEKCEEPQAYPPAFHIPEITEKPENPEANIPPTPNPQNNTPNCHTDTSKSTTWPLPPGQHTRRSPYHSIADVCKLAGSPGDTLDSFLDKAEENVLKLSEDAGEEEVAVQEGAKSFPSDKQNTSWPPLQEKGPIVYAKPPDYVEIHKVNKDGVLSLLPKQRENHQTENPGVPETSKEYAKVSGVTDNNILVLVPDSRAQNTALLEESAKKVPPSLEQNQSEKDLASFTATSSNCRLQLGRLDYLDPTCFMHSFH
Procedure: as §4, §2, §3

Chain of Macaca fascicularis PRLR (mfPRLR.mmh; SEQ ID NO:403) (as listed by the source): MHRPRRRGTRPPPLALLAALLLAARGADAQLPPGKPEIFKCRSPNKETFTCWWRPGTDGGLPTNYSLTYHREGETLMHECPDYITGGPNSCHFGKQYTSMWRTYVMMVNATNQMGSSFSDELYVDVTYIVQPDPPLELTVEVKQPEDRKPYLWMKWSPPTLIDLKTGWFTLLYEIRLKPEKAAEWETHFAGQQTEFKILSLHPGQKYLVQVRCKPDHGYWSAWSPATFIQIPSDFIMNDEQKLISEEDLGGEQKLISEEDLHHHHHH
T2 sequence (P16471 with tags, fused parts or gaps): as the sequence (as listed by the source) above, with V105I, T139A, M154I, T187I, I236T counted along it
T1 sequence (P16471 with tags, fused parts or gaps): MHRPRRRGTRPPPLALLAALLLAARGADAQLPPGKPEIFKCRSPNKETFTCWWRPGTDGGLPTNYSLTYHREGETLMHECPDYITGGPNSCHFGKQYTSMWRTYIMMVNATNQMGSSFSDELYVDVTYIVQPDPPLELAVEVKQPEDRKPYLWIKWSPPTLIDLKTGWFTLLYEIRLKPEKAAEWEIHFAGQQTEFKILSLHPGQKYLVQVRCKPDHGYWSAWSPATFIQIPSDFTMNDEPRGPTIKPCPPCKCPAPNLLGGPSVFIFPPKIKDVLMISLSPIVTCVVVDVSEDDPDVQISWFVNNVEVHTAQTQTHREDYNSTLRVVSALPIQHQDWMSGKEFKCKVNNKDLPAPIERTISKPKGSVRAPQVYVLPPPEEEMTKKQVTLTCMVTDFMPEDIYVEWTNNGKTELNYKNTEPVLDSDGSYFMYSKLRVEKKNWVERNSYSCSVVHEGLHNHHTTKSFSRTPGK

B2: H1H6781P: fully human anti-PRLR antibody, human IgG1 Fc; HCVR/LCVR SEQ ID NOs 50/58 (antibody, V domains shown)
VH: EVQLVESGGDLVQPGESLRLSCTASGFTFNSYEMNWVRQAPGKGLEWVSYISSSGGTKYYVDSVKGRFTISRDNAKKSLYLQMNSLRADDTALYYCARLNGVDVFDIWGQGTMVTVSS
VL: DIQMTQSPSSLSASVGDRVTITCRASQDIFNYLAWFQQKPGKVPELLISAASTLQSGVPSRFSGSGSGTYFTLTISSLQPEDIATYYCQRYNSAPLTFGGGTKVEIK
- ka ([1]; 25° C.): 257000 M/s
- kd ([1]; 25° C.): 6.05e-05 s⁻¹
- ka ([1]; 37° C.): 436000 M/s
- kd ([1]; 37° C.): 9.84e-05 s⁻¹
- ka ([2]; 25° C.): 143000 M/s
- kd ([2]; 25° C.): 0.000141 s⁻¹
- ka ([2]; 37° C.): 247000 M/s
- kd ([2]; 37° C.): 0.000267 s⁻¹
- ka ([3]; 25° C.): 208000 M/s
- kd ([3]; 25° C.): 0.000127 s⁻¹
- ka ([3]; 37° C.): 339000 M/s
- kd ([3]; 37° C.): 0.000309 s⁻¹
- FACS Cell Binding [4]: 40 Fold Above Background
- FACS Cell Binding [5]: 1 Fold Above Background
- FACS Cell Binding [6]: 26 Fold Above Background
- FACS Cell Binding [7]: 37 Fold Above Background
- FACS Cell Binding [8]: 1 Fold Above Background

B4: H1H6762P: fully human anti-PRLR antibody, human IgG1 Fc; HCVR/LCVR SEQ ID NOs 2/10 (antibody, V domains shown)
VH: QVQLVESGGGVVQPGRSLRLSCAASGFTFSHYGMVWVRQPPGKGLEWVALISFDGTTKYYADSVKGRFTISRDNSKNTLYLQMNSLRAEDTAVYFCVGAIAAAAFDLWGRGTLVTVSS
VL: EIVMTQSPATLSVSPGERATLSCRASQSVSSDLAWYQQKPGQAPRLLIYSASARATGIPARFTGSGSGTDFTLTISSLQSEDFAVYYCQQYNNWPMYTFGQGTKLEIK
- ka ([1]; 25° C.): 651000 M/s
- kd ([1]; 25° C.): 6.45e-05 s⁻¹
- ka ([1]; 37° C.): 801000 M/s
- kd ([1]; 37° C.): 0.000103 s⁻¹
- ka ([2]; 25° C.): 408000 M/s
- kd ([2]; 25° C.): 0.000208 s⁻¹
- ka ([2]; 37° C.): 679000 M/s
- kd ([2]; 37° C.): 0.000558 s⁻¹
- ka ([3]; 25° C.): 692000 M/s
- kd ([3]; 25° C.): 0.000179 s⁻¹
- ka ([3]; 37° C.): 948000 M/s
- kd ([3]; 37° C.): 0.000455 s⁻¹
- FACS Cell Binding [4]: 38 Fold Above Background
- FACS Cell Binding [5]: 1 Fold Above Background
- FACS Cell Binding [6]: 26 Fold Above Background
- FACS Cell Binding [7]: 36 Fold Above Background
- FACS Cell Binding [8]: 2 Fold Above Background

Now from value to molecule, other results behind:

- ka ([1]; 25° C.): 1.12e+06 M/s
- kd ([1]; 25° C.): 0.000101 s⁻¹
- ka ([1]; 37° C.): 1.37e+06 M/s
- kd ([1]; 37° C.): 0.00014 s⁻¹
- kd ([2]; 25° C.): 0.000814 s⁻¹
- kd ([2]; 37° C.): 0.00316 s⁻¹
- ka ([3]; 25° C.): 544000 M/s
- kd ([3]; 25° C.): 0.000864 s⁻¹
- ka ([3]; 37° C.): 777000 M/s
- kd ([3]; 37° C.): 0.00314 s⁻¹
- FACS Cell Binding [4]: 37 Fold Above Background
- FACS Cell Binding [6]: 29 Fold Above Background
- FACS Cell Binding [7]: 8 Fold Above Background
- FACS Cell Binding [8]: 1 Fold Above Background
B1: H1H6976N: anti-PRLR antibody, human IgG1 Fc form of H2M6976N of Table 1; HCVR/LCVR SEQ ID NOs 386/394 (antibody, V domains shown)
VH: EVQLLESGGGFVQPGGSLRLSCAASGFTFSSYAMSWVRQAPGKGLEWVSIISSNGRYTYYADSVKGRFTISRDNSKNTLYLQMNSLRAEDTAVYYCATVTGDWFDPWGQGTLVTVSS
VL: DIQLTQSPSFLSASVGDRVTITCWASQDIDISLAWYQQKPGKAPKLLIYAASTLQSGVPSKFSGSGSGTDFTLTISSLQPEDFSTYYCQQLNSYPITFGQGTRLDIK
modifications: human IgG1 Fc
- ka ([2]; 25° C.): 466000 M/s
- ka ([2]; 37° C.): 603000 M/s
- FACS Cell Binding [5]: 1 Fold Above Background

- ka ([1]; 25° C.): 263000 M/s
- kd ([1]; 25° C.): 6.07e-05 s⁻¹
- ka ([1]; 37° C.): 456000 M/s
- kd ([1]; 37° C.): 0.000117 s⁻¹
- kd ([2]; 25° C.): 0.000167 s⁻¹
- kd ([2]; 37° C.): 0.00045 s⁻¹
- ka ([3]; 25° C.): 301000 M/s
- kd ([3]; 25° C.): 0.000171 s⁻¹
- ka ([3]; 37° C.): 426000 M/s
- kd ([3]; 37° C.): 0.000484 s⁻¹
- FACS Cell Binding [4]: 40 Fold Above Background
- FACS Cell Binding [6]: 26 Fold Above Background
- FACS Cell Binding [7]: 37 Fold Above Background
- FACS Cell Binding [8]: 2 Fold Above Background
B3: H1H6785P: fully human anti-PRLR antibody, human IgG1 Fc; HCVR/LCVR SEQ ID NOs 98/106 (antibody, V domains shown)
VH: EVQLVESGGGLVQPGGSLRLSCAASGFTFSSYEMNWVRQAPGKGLEWISYISSRGGTIYYADSIKGRFTIYRDNARNSLYLQMNSLRAEDTAIYYCARLSGVDIFDIWGQGTMVTVSS
VL: B2 VL with D28G, F30S, F36Y, E45K, S49Y, A50F, S65G, Y70D, I83V
- ka ([2]; 25° C.): 227000 M/s
- ka ([2]; 37° C.): 297000 M/s
- FACS Cell Binding [5]: 1 Fold Above Background

From patent publication US10925971B2, “Methods of treating PRLR positive breast cancer” (Regeneron Pharmaceuticals, Inc., priority 2016, dated 2021)
